In the Human Domainome abundance scans (Beltran et al. 2025):
± gives the uncertainty stated by the source.

B1: Zinc finger protein ZIC 2, residues 250 to 295; numbered along this chain, O95409 (parent)
chain: QCIKQELICKWIDPEQLSNPKKSCNKTFSTMHELVTHVSVEHVGGP

Variants of: B1
Assay: abundance fitness (aPCA) (normalised: wild type 0, dead -1); higher = more abundant; growth selection in yeast, the domain comes from the species named
Conditions: Homo sapiens

Row | Variant | abundance fitness
1 | QCIKQELICKWIDPEQLSNPVKSCNKTFSTMHELVTHVSVEHVGGP | -0.116 ± 0.089
2 | QCIKQELICKWIDPEQLSNPFKSCNKTFSTMHELVTHVSVEHVGGP | 0.01 ± 0.11
3 | QCIKQELICKWIDPEQLSNPRKSCNKTFSTMHELVTHVSVEHVGGP | -0.302 ± 0.086
4 | QCIKQELICKWIDPEQLSNPWKSCNKTFSTMHELVTHVSVEHVGGP | -0.102 ± 0.098
5 | QCIKQELICKWIDPEQLSNPEKSCNKTFSTMHELVTHVSVEHVGGP | 0.078 ± 0.1
6 | QCIKQELICKWIDPEQLSNPLKSCNKTFSTMHELVTHVSVEHVGGP | -0.091 ± 0.089
7 | QCIKQELICKWIDPEQLSNPTKSCNKTFSTMHELVTHVSVEHVGGP | -0.168 ± 0.1
8 | QCIKQELICKWIDPEQLSNPYKSCNKTFSTMHELVTHVSVEHVGGP | -0.095 ± 0.11
9 | QCIKQELICKWIDPEQLSNPGKSCNKTFSTMHELVTHVSVEHVGGP | -0.12 ± 0.086
10 | QCIKQELICKWIDPEQLSNPSKSCNKTFSTMHELVTHVSVEHVGGP | -0.178 ± 0.09
11 | QCIKQELICKWIDPEQLSNPAKSCNKTFSTMHELVTHVSVEHVGGP | -0.008 ± 0.09
12 | QCIKQELICKWIDPEQLSNPCKSCNKTFSTMHELVTHVSVEHVGGP | -0.673 ± 0.1
13 | QCIKQELICKWIDPEQLSNPPKSCNKTFSTMHELVTHVSVEHVGGP | 0.028 ± 0.1
14 | QCIKQELICKWIDPEQLSNPMKSCNKTFSTMHELVTHVSVEHVGGP | -0.203 ± 0.13
15 | QCIKQELICKWIDPEQLSNPNKSCNKTFSTMHELVTHVSVEHVGGP | 0.314 ± 0.11
16 | QCIKQELICKWIDPEQLSNPHKSCNKTFSTMHELVTHVSVEHVGGP | 0.016 ± 0.11
17 | QCIKQELICKWIDPEQLSNPIKSCNKTFSTMHELVTHVSVEHVGGP | -0.153 ± 0.099
18 | QCIKQELICKWIDPEQLSNPQKSCNKTFSTMHELVTHVSVEHVGGP | 0.126 ± 0.12
19 | QCIKQELICKWIDPEQLSNPKKCCNKTFSTMHELVTHVSVEHVGGP | 0.029 ± 0.098

Row | Variant | abundance fitness
20 | QCIKQELICKWIDPEQLSNPKKACNKTFSTMHELVTHVSVEHVGGP | 0.316 ± 0.09
21 | QCIKQELICKWIDPEQLSNPKKDCNKTFSTMHELVTHVSVEHVGGP | -0.287 ± 0.11
22 | QCIKQELICKWIDPEQLSNPKDSCNKTFSTMHELVTHVSVEHVGGP | -0.035 ± 0.13
23 | QCIKQELICKWIDPEQLSNPKPSCNKTFSTMHELVTHVSVEHVGGP | -0.095 ± 0.1
24 | QCIKQELICKWIDPEQLSNPKFSCNKTFSTMHELVTHVSVEHVGGP | -0.332 ± 0.11
25 | QCIKQELICKWIDPEQLSNPKMSCNKTFSTMHELVTHVSVEHVGGP | -0.126 ± 0.1
26 | QCIKQELICKWIDPEQLSNPKVSCNKTFSTMHELVTHVSVEHVGGP | 0.037 ± 0.089
27 | QCIKQELICKWIDPEQLSNPKLSCNKTFSTMHELVTHVSVEHVGGP | -0.089 ± 0.086
28 | QCIKQELICKWIDPEQLSNPKCSCNKTFSTMHELVTHVSVEHVGGP | -0.349 ± 0.11
29 | QCIKQELICKWIDPEQLSNPKNSCNKTFSTMHELVTHVSVEHVGGP | 0.224 ± 0.12
30 | QCIKQELICKWIDPEQLSNPKHSCNKTFSTMHELVTHVSVEHVGGP | -0.006 ± 0.12
31 | QCIKQELICKWIDPEQLSNPKQSCNKTFSTMHELVTHVSVEHVGGP | -0.166 ± 0.099
32 | QCIKQELICKWIDPEQLSNPKASCNKTFSTMHELVTHVSVEHVGGP | -0.175 ± 0.092
33 | QCIKQELICKWIDPEQLSNPKYSCNKTFSTMHELVTHVSVEHVGGP | -0.376 ± 0.15
34 | QCIKQELICKWIDPEQLSNPKRSCNKTFSTMHELVTHVSVEHVGGP | 0.124 ± 0.086
35 | QCIKQELICKWIDPEQLSNPKTSCNKTFSTMHELVTHVSVEHVGGP | -0.015 ± 0.1
36 | QCIKQELICKWIDPEQLSNPKGSCNKTFSTMHELVTHVSVEHVGGP | -0.126 ± 0.088
37 | QCIKQELICKWIDPEQLSNPKESCNKTFSTMHELVTHVSVEHVGGP | -0.285 ± 0.11
38 | QCIKQELICKWIDPEQLSNPKWSCNKTFSTMHELVTHVSVEHVGGP | -0.404 ± 0.096

Row | Variant | abundance fitness
39 | QCIKQELICKWIDPEQLSNPKSSCNKTFSTMHELVTHVSVEHVGGP | -0.102 ± 0.091
40 | QCIKQELICKWIDPEQLSNVKKSCNKTFSTMHELVTHVSVEHVGGP | -0.111 ± 0.089
41 | QCIKQELICKWIDPEQLSNKKKSCNKTFSTMHELVTHVSVEHVGGP | -0.233 ± 0.12
42 | QCIKQELICKWIDPEQLSNIKKSCNKTFSTMHELVTHVSVEHVGGP | -0.498 ± 0.13
43 | QCIKQELICKWIDPEQLSNWKKSCNKTFSTMHELVTHVSVEHVGGP | -0.521 ± 0.096
44 | QCIKQELICKWIDPEQLSNNKKSCNKTFSTMHELVTHVSVEHVGGP | -0.121 ± 0.12
45 | QCIKQELICKWIDPEQLSNLKKSCNKTFSTMHELVTHVSVEHVGGP | -0.184 ± 0.092
46 | QCIKQELICKWIDPEQLSNDKKSCNKTFSTMHELVTHVSVEHVGGP | 0.057 ± 0.12
47 | QCIKQELICKWIDPEQLSNYKKSCNKTFSTMHELVTHVSVEHVGGP | -0.621 ± 0.15
48 | QCIKQELICKWIDPEQLSNAKKSCNKTFSTMHELVTHVSVEHVGGP | -0.235 ± 0.094
49 | QCIKQELICKWIDPEQLSNCKKSCNKTFSTMHELVTHVSVEHVGGP | -0.832 ± 0.11
50 | QCIKQELICKWIDPEQLSNMKKSCNKTFSTMHELVTHVSVEHVGGP | -0.076 ± 0.11
51 | QCIKQELICKWIDPEQLSNQKKSCNKTFSTMHELVTHVSVEHVGGP | -0.264 ± 0.11
52 | QCIKQELICKWIDPEQLSNRKKSCNKTFSTMHELVTHVSVEHVGGP | -0.416 ± 0.086
53 | QCIKQELICKWIDPEQLSNHKKSCNKTFSTMHELVTHVSVEHVGGP | -0.883 ± 0.14
54 | QCIKQELICKWIDPEQLSNFKKSCNKTFSTMHELVTHVSVEHVGGP | -0.356 ± 0.12
55 | QCIKQELICKWIDPEQLSNEKKSCNKTFSTMHELVTHVSVEHVGGP | -0.046 ± 0.12
56 | QCIKQELICKWIDPEQLSNTKKSCNKTFSTMHELVTHVSVEHVGGP | -0.554 ± 0.11
